Results: patent US20220204603A1 (PHARMABCINE, published 2022)

T1: mouse Ang2 (construct not stated) (mouse, UniProt O35608 19-496, limits assumed)
T1 construct: also called mAng2
T1 sequence (looked up): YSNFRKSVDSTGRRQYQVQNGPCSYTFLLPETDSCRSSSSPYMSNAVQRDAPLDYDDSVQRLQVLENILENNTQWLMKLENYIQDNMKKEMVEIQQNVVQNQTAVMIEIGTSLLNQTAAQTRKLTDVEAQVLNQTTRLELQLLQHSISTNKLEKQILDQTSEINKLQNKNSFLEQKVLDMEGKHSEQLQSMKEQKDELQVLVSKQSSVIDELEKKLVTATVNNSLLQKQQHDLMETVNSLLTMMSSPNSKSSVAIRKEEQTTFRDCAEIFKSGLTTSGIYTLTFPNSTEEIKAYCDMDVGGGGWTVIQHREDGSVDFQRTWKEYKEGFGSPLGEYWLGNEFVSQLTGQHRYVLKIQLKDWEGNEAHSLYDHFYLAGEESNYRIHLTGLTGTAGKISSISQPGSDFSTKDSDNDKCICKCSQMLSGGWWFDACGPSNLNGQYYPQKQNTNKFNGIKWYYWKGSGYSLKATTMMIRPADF

T2: human Ang2 (construct not stated) (human, UniProt O15123 19-496, limits assumed)
T2 construct: also called hAng2
T2 sequence (looked up): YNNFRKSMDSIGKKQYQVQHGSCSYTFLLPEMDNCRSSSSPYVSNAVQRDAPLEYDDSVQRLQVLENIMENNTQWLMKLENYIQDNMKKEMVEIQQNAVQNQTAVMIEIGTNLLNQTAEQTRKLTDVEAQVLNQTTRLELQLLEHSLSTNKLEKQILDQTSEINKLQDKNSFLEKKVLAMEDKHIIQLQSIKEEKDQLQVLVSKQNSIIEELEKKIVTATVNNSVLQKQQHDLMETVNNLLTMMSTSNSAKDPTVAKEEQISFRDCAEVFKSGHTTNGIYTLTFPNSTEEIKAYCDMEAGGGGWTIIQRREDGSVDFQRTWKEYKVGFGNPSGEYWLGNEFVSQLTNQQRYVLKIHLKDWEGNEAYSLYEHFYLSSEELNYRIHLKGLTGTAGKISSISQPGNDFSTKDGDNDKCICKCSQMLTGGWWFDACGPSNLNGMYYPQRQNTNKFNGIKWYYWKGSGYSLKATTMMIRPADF

B1: No. 46 anti-Ang2 antibody (IgG) (antibody, V domains shown)
VH: QVQLVESGGGLVQPGRSLRLSCAASGFTFDDCAMHWVRQAPGKGLEWVSGISGNSKNVAYADSVKGRFSISRDDAKNSLYLQMNSLRAEDTAVYYCARDPAYSQFDYWGQGTLITVSS
VL: QSALTQPPSLSATPGQRVTISCSGSSSNVGGYPVNWYQQVPGAAPKLLMYTDYKRPSGVPDRFFGSKSGTSASLAISGLQSEDEADYYCATWDDNLNGYVFGTGTKVTVLG
notes: IgG form: VH cloned into Invivogen pfusess-hchg1, VL into Invivogen pfuse2ss-hclk; also called 3C6
B2: No. 3 anti-Ang2 antibody (IgG) (antibody, V domains shown)
VH: QMQLVQSGGGLVQPGRSLKLSCAASGFSFDDYAMHWVRQAPGKGLEWVATIKDDGSQTYYVDSVKGRFTISRDNAKSSLFLQMNSLRAEDTAVYYCTTEGLMNGLHFDMWGQGTMVTVSS
VL: LVLTQPPSVSGAPGQGVTISCTGSSSNIGAGYDVHWYQQFPGTAPKLLISGNNNRPSGLPDRFSGSKSGTSASLAITGLQAEDEADYYCQSYDSRLGVVFGGGTKLTVLG
notes: IgG form: VH cloned into Invivogen pfusess-hchg1 (heavy chain constant region), VL into Invivogen pfuse2ss-hclk (light chain constant region); Expressed in Expi293F, purified on Protein A; also called 1D10
B3: No. 8 anti-Ang2 antibody (IgG) (antibody, V domains shown)
VH: QVQLVESGGGLVKPGGSLRLSCAASGFTFSSYSMNWVRQAPGKGLEWVSSISASDGATYYADSVRGRFTISRDNSRSTLYLQMNSLRAEDTAVYYCAKILAGYSGPMGGMDVWGQGTTVTVSS
VL: DIQMTQSPSSLSASVGDRVTITCRASRDISNYLAWYQQKPGKAPKSLIYGASNLQSGVSSQFSGSGSGTDFTLTINSLQPEDSATYYCQQYYSYPLTFGGGTKVDIKR
notes: IgG form: VH cloned into Invivogen pfusess-hchg1, VL into Invivogen pfuse2ss-hclk; also called 3A10
B4: No. 4 anti-Ang2 antibody (IgG) (antibody, V domains shown)
VH: QVQLVESGAEVKRPGESLRISCKTSGYSFTSYWIHWVRQMPGKELEWMGSIYPGNSDTRYSPSFQGHVTISADSSSSTAYLQWSSLKASDTAMYYCTTEGLMNGLHFDMWGQGTMVTVSS
VL: DIVMTQTPLSLPVTPGEPASISCRSSQSLLHSLGDNYLDWYLQKPGQSPQLLIYLGSKRAAGVPDRFSGSGSGTDFTLKISRVEAEDVGVYYCMQSLQTPPYTFGQGTKLEIKR
notes: IgG form: VH cloned into Invivogen pfusess-hchg1, VL into Invivogen pfuse2ss-hclk; also called 2D8
B5: No. 41 anti-Ang2 antibody (IgG) (antibody, V domains shown)
VH: QVQLVESGGGLVQPGGSLRLSCEASGFAFGRYEMNWVRQAPGKGLEWIAYIDTGGGAKVYADSVKGRFTISRDDSKNSLYLQMNSLRAEDTAVYYCTTEGLMNGLHFDMWGQGTMITVSS
VL: DIQMTQSPSTLSASVGDRVAITCRASQAISTWLAWYQQKPGKAPKLLIYTASTLESGVPSRFSGSGSGTDFTLTINSLQPDDFATYYCQQLNSYPYTFGGGTKVEIKR
notes: IgG form: VH cloned into Invivogen pfusess-hchg1, VL into Invivogen pfuse2ss-hclk; also called 2B2

Target: T1, mouse Ang2 (construct not stated)
Assay: SPR Biacore T200, antibody captured on protein A chip, Ang2 as analyte, 1:1 model
Protocol: (§1) To analyze the binding affinity of the selected anti-Ang2 antibodies, affinity analysis for human Ang2 and mouse Ang2 was performed using BIACORE® T200 (GE Healthcare). A protein A sensor chip was used, and an experiment was conducted in accordance with the manufacturer's manual. Detailed analysis conditions are as follows. 2000 response units (RU) of protein A were immobilized, 25 RU of anti-Ang2 antibody candidates were used for binding, and various concentrations of human Ang2 and mouse Ang2 were allowed to bind. The starting concentrations for analysis are 100 nM and 150 nM, respectively. The analysis proceeded at a flow rate of 30 μl/min, the binding and dissociation time of human Ang2 was measured as 300 seconds and 2000 seconds, respectively, and the binding and dissociation time of mouse Ang2 was analyzed as 300 seconds and 1000 seconds, respectively. Analysis was performed using a 1:1 binding model as an analytical model.

**Q.** What does the source list for B1?
**A.** Kd: 193 pM; koff: 8.94e-05 s⁻¹; kon: 465000 M⁻¹ s⁻¹

**Q.** Which results are given for B2?
**A.** Kd: 538 pM; koff: 8.53e-05 s⁻¹; kon: 158000 M⁻¹ s⁻¹

**Q.** What does the source list for B3?
**A.** Kd: 463 pM; koff: 6.69e-05 s⁻¹; kon: 144000 M⁻¹ s⁻¹

**Q.** Which results are given for B4?
**A.** Kd: 450 pM; koff: 7.05e-05 s⁻¹; kon: 157000 M⁻¹ s⁻¹

**Q.** For B5, which Kd is on record?
**A.** Its Kd is 328 pM.

**Q.** What about the koff of the same binder?
**A.** Its koff is 9.47e-05 s⁻¹.

**Q.** And the kon?
**A.** The kon was 289000 M⁻¹ s⁻¹.

Target: T2, human Ang2 (construct not stated)
Assay: as above
Protocol: as §1

**Q.** For B1, which Kd is on record?
**A.** Its Kd is 314 pM.

**Q.** And the koff?
**A.** Its koff is 8.62e-05 s⁻¹.

**Q.** And the kon?
**A.** The kon was 274000 M⁻¹ s⁻¹.

**Q.** With B2 as the binder, how does the Kd read?
**A.** The Kd was 127 pM.

**Q.** And the koff?
**A.** The koff was 4.22e-05 s⁻¹.

**Q.** What about the kon of the same binder?
**A.** Its kon is 334000 M⁻¹ s⁻¹.

**Q.** With B3 as the binder, how does the Kd read?
**A.** Its Kd is 163 pM.

**Q.** And the koff?
**A.** Its koff is 4.37e-05 s⁻¹.

**Q.** And the kon?
**A.** Its kon is 268000 M⁻¹ s⁻¹.

**Q.** How did the Kd turn out when B4 was run?
**A.** Its Kd is 217 pM.

**Q.** And the koff?
**A.** Its koff is 5.93e-05 s⁻¹.

**Q.** What about the kon of the same binder?
**A.** The kon was 273000 M⁻¹ s⁻¹.

**Q.** What does the source list for B5?
**A.** Kd: 243 pM; koff: 7.77e-05 s⁻¹; kon: 320000 M⁻¹ s⁻¹
